Data from article PMC12780147.

Columns and labels:
[1] = target: CD127 (IL-7Rα) (UniProt P16871); test: BLI
[2] = target: TGF-β1 (not stated (human TGF-β1 stated for the reporter assay only)); test: BLI

Chain of CD127 (IL-7Rα) (P16871 21-459): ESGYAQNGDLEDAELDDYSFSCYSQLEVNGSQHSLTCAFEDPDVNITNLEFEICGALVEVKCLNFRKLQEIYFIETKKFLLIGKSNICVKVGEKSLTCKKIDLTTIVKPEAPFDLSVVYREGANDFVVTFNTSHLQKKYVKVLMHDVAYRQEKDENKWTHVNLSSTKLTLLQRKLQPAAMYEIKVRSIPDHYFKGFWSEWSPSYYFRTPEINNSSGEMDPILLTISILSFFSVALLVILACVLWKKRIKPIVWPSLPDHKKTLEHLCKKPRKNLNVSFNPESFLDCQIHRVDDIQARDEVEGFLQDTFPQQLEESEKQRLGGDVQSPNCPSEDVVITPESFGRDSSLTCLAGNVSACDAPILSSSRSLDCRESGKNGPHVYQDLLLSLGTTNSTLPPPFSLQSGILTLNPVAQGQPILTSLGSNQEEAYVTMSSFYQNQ

Q: Which Kd [1] does the source give for “rhIL-7-hyFc-sTBRII (IL7-TBRII), bifunctional fusion protein (from UniProt P13232 26-177; P37173 23-166) (Fc fusion)” here?
A: 6.91 nM

Q: And the Kd [2]?
A: 0.145 nM
